According to PMC3915751:

System: T1, BaeR (Erwinia amylovora Ea1189 (primers from CFBP1430 genome)), ORF:3df56c72
T1 sequence: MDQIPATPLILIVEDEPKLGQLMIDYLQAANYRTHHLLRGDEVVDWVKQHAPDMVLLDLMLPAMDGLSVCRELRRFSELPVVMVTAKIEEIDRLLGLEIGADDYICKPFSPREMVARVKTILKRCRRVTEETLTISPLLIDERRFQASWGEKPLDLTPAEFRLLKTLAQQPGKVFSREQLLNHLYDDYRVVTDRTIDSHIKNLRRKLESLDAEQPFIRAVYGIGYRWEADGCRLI
Experiment: EMSA
Settings: 50 mM Tris-HCl pH 7.5, 1 mM DTT, 500 mM MgCl2, 100 mM EDTA, 10 mM NaCl ([…], room temperature 30 min

Sequence	binding
TGGCTGGCAACACTGAAGCCGCCCAGGCTCAGGCCGATGAGTAAAGGGAGCAGTTTGTTCATTTGCATTCCTTGTAGTGCAGCAAAATTGTTATGGTAGCGTTGACGCAGACCAAAAATTGTCGCCGATGATAGCAGAGACTCCGGATCAGGTAAGTTGGCTGAAAGTGCCATCCTCCTTTTAATTTACTTAAATACTTCATCAAGAACCAGACATCCGGCTGATTACTATTGAACTAAACGTTTTCGCCATTATTTCAGGAGATACAGTGATGACCGCAGTGACCAATTA (double strand) [tolC upstream region (291 bp)]	no binding
TGTTTGGTATTTCGTGCCATAGCGGTATGATTTACAACGCTTCAGACTTACATACATTTGCGAATGTATGTACTATAGCACGACTAAAATTTAAACGCAGCAGTGGGTTTGTAATCCATTGAACAATCGATATCGGACATTCGAGGTTTATTTATGAACAAAAACAGAGGGTTAACGCCTCTGGCGGCCGTTCTGATGCTTTCAG (double strand) [acrAB upstream region (205 bp)]	binds more weakly
